This note sets out measurements from publication PMC5095173, “Disulfide-activated protein kinase G Iα regulates cardiac diastolic relaxation and fine-tunes the Frank–Starling response” (Nature Communications, 2016).

To fix the notation:
B1: Arhgap35 pS1150 (protein, UniProt Q91YM2 1-1499, looked up)
Rho GTPase-activating protein …: MMMARKQDVRIPTYNISVVGLSGTEKEKGQCGIGKSCLCNRFVRPSADEFHLDHTSVLSTSDFGGRVVNNDHFLYWGEVSRSLEDCVECKMHIVEQTEFIDDQTFQPHRSTALQPYIKRAAATKLASAEKLMYFCTDQLGLEQDFEQKQMPDGKLLVDGFLLGIDVSRGMNRNFDDQLKFVSNLYNQLAKTKKPIVVVLTKCDEGVERYIRDAHTFALSKKNLQVVETSARSNVNVDLAFSTLVQLIDKSRGKTKIIPYFEALKQQSQQIATAKDKYEWLVSRIVKNHNENWPSVSRKMQASPEYQDYVYLEGTQKAKKLFLQHIHRLKHEHIERRRKLYLAALPLAFEALIPNLDEVDHLSCIKAKKLLETKPEFLKWFVVLEETPWDATSHIDNMENERIPFDLMDTVPAEQLYETHLEKLRNERKRAEMRRAFKENLETSPFITPGKPWEEARSFIMNEDFYQWLEESVYMDIYGKHQKQIIDRAKEEFQELLLEYSELFYELELDAKPSKEKMGVIQDVLGEEQRFKALQKLQAERDALILKHIHFVYHPTKETCPSCPACVDAKIEHLISSRFIRPSDRNQKNSLSDLNIDRINLVILGKDGLARELANEIRALCTNDDKYVIDGKMYELSLRPIEGNVRLPVNSFQTPTFQPHGCLCLYNSKESLSYVVESIEKSRESTLGRRDNHLVHLPLTLILVNKRGDTSGETLHSLIQQGQQIASKLQCVFLDPASAGIGYGRNINEKQISQVLKGLLDSKRNLNLVSSTASIKDLADVDLRIVMCLMCGDPFSADDVLSPVLQSQTCKSSHCGSSNSVLLELPIGLHKKRIELSVLSYHSSFSIRKSRLVHGYIVFYSAKRKASLAMLRAFLCEVQDIIPIQLVALTDGAIDVLDNDLSREQLTEGEEIAQEIDGRFTSIPCSQPQHKLELFHPFFKDVVEKKNIIEATHMYDNVAEACSTTEEVFNSPRAGSPLCNSNLQDSEEDVEPPSYHLFREDATLPSLSKDHSKFSMELEGNDGLSFIMSNFESKLNNKVPPPVKPKPPVHFDITKDLSYLDQGHREGQRKSMSSSPWMPQDGFDPSDYAEPMDAVVKPRNEEENIYSVPHDSTQGKIITIRNINKAQSNGSGNGSDSEMDTSSLERGRKVSAVSKPVLYRTRCTRLGRFASYRTSFSVGSDDELGPIRKKEEDQASQGYKGDNAVIPYETDEDPRRRNILRSLRRNTKKPKPKPRPSITKATWESNYFGVPLTTVVTPEKPIPIFIERCIEYIEATGLSTEGIYRVSGNKSEMESLQRQFDQDHNLDLAEKDFTVNTVAGAMKSFFSELPDPLVPYSMQIDLVEAHKINDREQKLHALKEVLKKFPKENHEVFKYVISHLNKVSHNNKVNLMTSENLSICFWPTLMRPDFSSMDALTATRSYQTIIELFIQQCPFFFYNRPISEPPGAAPGSPSAMAPTVPFLTSTPATSQPSPPQSPPPTPQSPMQPLLSSQLQAEHTL
modifications: phosphorylated S1150
B2: Stk10 pS13 (protein, UniProt E9PTG8 1-967, looked up)
Serine/threonine-protein …: MAFANFRRILRLSTFEKRKSREYEHVRRDLDPNDVWEILGELGDGAFGKVYKAKNKETGALAAAKVIETKSEEELEDYIVEIEILATCDHPYIVKLLGAYYYDGKLWIMIEFCPGGAVDAIMLELDRGLTEPQIQVVCRQMLEALNFLHGKRIIHRDLKAGNVLMTLEGDIRLADFGVSAKNLKTLQKRDSFIGTPYWMAPEVVLCETMKDAPYDYKADIWSLGITLIEMAQIEPPHHELNPMRVLLKIAKSDPPTLLTPSKWSTEFRDFLKIALDKNPETRPSAAQLLQHPFVSTVTSNKALRELVAEAKAEVMEEIEDGKEDGSEKDAVSAVPPPVNHTQDSSANGTQPSLNSDKLLQDSSTPLPPSQPQEPVNGPCNQPSGDGSPQNTSPADEVSKNDNGLKVPVPLRKSRPLSVDARIQVTEEKQITDQAENPSSAASKPPKVNQSRPNSSALETLGVETLANGGLELPGSVTPNHSKRASDCSNLSTSESMDYGTSLSADLSLNKETGSLSLKGSKLHNKTLKRTRRFVVDGVEVSITTSKIISEDEKKDEEMRFLRRQELRELRLLQKEEHRNQTQLSTKHELQLEQMHRRFEQEINAKKKFYDVELENLERQQKQQVEKMEQDHSVRRREEAKRIRLEQDRDYARFQEQLKQMKKEVKRSIEKALRKQRQESMRMGQDSHTQKKQRLDRDFVAKQKEDLELAMKKLTAENRREICDKERDCLNKKQELLRDREAALWEMEEHQLQERHQLVKQQLKDQYFLQRHDLLRKHEKEREQMQRYNQRMMEQLKVRQQQEKARLPKIQRSDGKTRMAMYKKSLHINGAGSASEQREKVKQFSQQEEKRQKAERLQQQQKHENQMRDMVAQCESNMNELQQLQNEKCHLLVEHETQKLKALDESHNQSLKEWRDKLRPRKKALEEDLNQKKREQEMFFRLSEEAETRPTTPNRASKFFPYSSGDAS
modifications: phosphorylated at S13
B3: Smpx pT40 (protein, UniProt Q925F0 1-85, looked up)
Small muscular protein: MSKQPISNVRSIQANINIPMGAFRPGAGQPPRRKESTPGTAEGAPATPEEKKPVPGMKKFPGPVVNLSEIQNVKSELKYVPKGEQ
modifications: phosphorylated at T40
B4: Ndrg2 pS332 (protein, UniProt Q8VBU2 2-371, looked up)
Protein NDRG2: AELQEVQITEEKPLLPGQTPEAAKEAELAARILLDQGQTHSVETPYGSVTFTVYGTPKPKRPAIFTYHDVGLNYKSCFQPLFQFGDMQEIIQNFVRVHVDAPGMEEGAPVFPLGYQYPSQDQLADMIPCILQYLNFSTIIGVGVGAGAYILSRYALNHPDTVEGLVLINIDPNAKGWMDWAAHKLTGLTSSIPEMILGHLFSQEELSGNSELIQKYRSLITHAPNLENIELYWNSYNNRRDLNFERGGEMTLKCPVMLVVGDQAPHEDAVVECNSKLDPTQTSFLKMADSGGQPQLTQPGKLTEAFKYFVQGMGYMASSCMTRLSRSRTASLTSAASIDGSRSRSRTLSQSSESGTLPSGPPGHTMEVSC
modifications: phosphorylated at S332
B5: Ppp1r2 pT21 (protein, UniProt P50411 2-205, looked up)
Protein phosphatase inhibitor …: AASTASHRPIKGILKNKTSTTSSVVASAEQPRRTVEEELSKKSQKWDEMNILATYHPADKDYGLMKIDEPDTPYHNMIGDDEDVCSDSEGNEVMTPEILAKKLAAAEGSEPKFRTREQESSGEEDNDLSPEEREKKRQFEMKRKLHYNEGLNIKLARQLISKDLHDDDEDEEMSETADADSMNIEESNQGSTAGDHLQHKSQSS
modifications: phosphorylated at T21
B6: Ppp1r12a pT697 (protein, UniProt Q10728 1-1032, looked up)
Protein phosphatase 1 …: MKMADAKQKRNEQLKRWIGSETDLEPPVVKRQKTKVKFDDGAVFLAACSSGDTDEVLKLLHRGADINYANVDGLTALHQACIDDNVDMVKFLVENGANINQPDNEGWIPLHAAASCGYLDIAEFLIGQGAHVGAVNSEGDTPLDIAEEEAMEELLQNEVNRQGVDIEAARKEEERIMLRDARQWLNSGHISDVRHAKSGGTALHVAAAKGYTEVLKLLIQAGYDVNIKDYDGWTPLHAAAHWGKEEACRILVDNLCDMETVNKVGQTAFDVADEDILGYLEELQKKQNLLHSEKRDKKSPLIESTANMENNQPQKTFKNKETLIIEPEKNASRIESLEQEKADEEEEGKKDESSCSSEEDEEDDSESEAETDKTKPMASVTNAHTASTQAAPAAVTTPTLSSNQGTPTSPVKKFPTSTTKISPKEEERKDESPASWRLGLRKTGSYGALAEITASKEAQKEKDTAGVIRSASSPRLSSSLDNKEKEKDNKGTRLAYVAPTIPRRLGSTSDIEEKENRESSNLRTSSSYTRRKWEDDLKKNSSINEGSTYHRSCSFGRRQDDLISCSVPSTTSTPTVTSAAGLQKSFLSSTSTTAKTPPGSSPAGTQSSTSNRLWAEDSTEKEKDSAPTAATILVAPTVVSAAASSTTALTTTTAGTLSSTSEVRERRRSYLTPVRDEESESQRKARSRQARQSRRSTQGVTLTDLQEAEKTIGRSRSTRTREQENEEKDKEEKEKQDKEKQEEKKESEVSREDEYKQKYSRTYDETYARYRPVSTSSSSTPSSSSLSTLGSSLYASSQLNRPNSLVGITSAYSRGLTKDNEREGEKKEEEKEGEDKSQPKSIRERRRPREKRRSTGVSFWTQDSDENEQERQSDTEDGSSKRDTQTDSVSRYDSSSTSSSDRYDSLLGRSASYSYLEERKPYGSRLEKDDSTDFKKLYEQILAENEKLKAQLHDTNMELTDLKLQLEKATQRQERFADRSLLEMEKRERRALERRISEMEEELKMLPDLKADNQRLKDENGALIRVISKLSK
modifications: phosphorylated at T697

The test system of one test is PKGIα (analogue-sensitive M438G), disulfide-activated. Nature of the test: Chemical genetic phosphoproteomic screen, disulfide-activated PKGIα M438G versus unactivated control. Particulars: Group 2 (disulfide-activated) vs Group 3 (control). It is filed as biochemical, human PKGIα; substrates in rat heart homogenate. An outline of the steps:
(§1)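 Substrates in rat left-ventricle homogenate (20 mg ml) are labelled by engineered Met438Gly PKGIα given a bulky N6-alkylated ATPγS analogue, either as disulfide-activated M438G (oxidized, DTT-free) or as cGMP-activated C42S/M438G. Covalent capture and LC–MS/MS identify sites relative to unactivated kinase.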
For the molecule B1, the log2 fold changes was determined as 0.2658.

Regarding B2, the log2 fold changes stood at 0.1825.

For B3, the log2 fold changes stood at 1.906.

Still in this test, the particulars now being: control = PKGIα C42S/M438G.
As to B4, the “log2 fold change Disulfide vs Control” value came out at 1.914.

B5: the “log2 fold change Disulfide vs Control” value is reported as 1.627.

Consider B6, for which the “log2 fold change Disulfide vs Control” value is 0.1684.

A further test relates to PKGIα (analogue-sensitive C42S/M438G), cGMP-activated. Put plainly: Chemical genetic phosphoproteomic screen, cGMP-activated PKGIα C42S/M438G versus unactivated control. Particulars: Group 1 (cGMP-activated) vs Group 3 (control). The class given is biochemical, human PKGIα; substrates in rat heart homogenate. An outline of the steps:
as §1
Take B1: the log2 fold changes was determined as 0.1001.

With B2, the log2 fold changes is recorded as 0.7023.

Turning to B3, the log2 fold changes amounted to 0.3577.

The same test, now with this note: control = PKGIα C42S/M438G.
Turning to B4, the “log2 fold change cGMP vs Control” value worked out at 3.419.

Turning to B5, the “log2 fold change cGMP vs Control” value is recorded as 5.158.

Turning to B6, the “log2 fold change cGMP vs Control” value was 0.8734.
